Measurements from paper doi:10.1101/2024.08.16.608213.

What was measured:
SPM-1 beta-lactamase [1] = target: T1, SPM-1 beta-lactamase (Pseudomonas aeruginosa, UniProt Q8G9Q0 29-276); test: EMSA
T1 sequence: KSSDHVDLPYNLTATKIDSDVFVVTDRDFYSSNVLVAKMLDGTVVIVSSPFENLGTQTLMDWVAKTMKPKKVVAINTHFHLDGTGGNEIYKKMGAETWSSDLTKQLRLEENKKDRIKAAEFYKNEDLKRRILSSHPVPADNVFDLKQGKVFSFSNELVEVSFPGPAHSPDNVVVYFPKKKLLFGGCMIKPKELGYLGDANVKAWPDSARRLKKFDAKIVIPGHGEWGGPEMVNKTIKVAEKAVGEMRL

NDM-1 beta-lactamase = NDM-1 beta-lactamase (UniProt C7C422 29-270); test: EMSA
Sequence of NDM-1 beta-lactamase (C7C422 29-270): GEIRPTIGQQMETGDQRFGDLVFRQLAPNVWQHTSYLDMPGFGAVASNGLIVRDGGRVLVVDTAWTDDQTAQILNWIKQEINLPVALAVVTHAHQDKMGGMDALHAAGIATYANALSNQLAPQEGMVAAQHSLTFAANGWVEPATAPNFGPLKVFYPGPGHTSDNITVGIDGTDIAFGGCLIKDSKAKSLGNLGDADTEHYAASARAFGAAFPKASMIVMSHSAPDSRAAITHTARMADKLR

VIM-1 beta-lactamase = VIM-1 beta-lactamase (UniProt A0A0F7KYQ8 21-266); test: EMSA
IMP-1 beta-lactamase = IMP-1 beta-lactamase (UniProt P52699 19-246); test: EMSA
Sequence of IMP-1 beta-lactamase (P52699 19-246): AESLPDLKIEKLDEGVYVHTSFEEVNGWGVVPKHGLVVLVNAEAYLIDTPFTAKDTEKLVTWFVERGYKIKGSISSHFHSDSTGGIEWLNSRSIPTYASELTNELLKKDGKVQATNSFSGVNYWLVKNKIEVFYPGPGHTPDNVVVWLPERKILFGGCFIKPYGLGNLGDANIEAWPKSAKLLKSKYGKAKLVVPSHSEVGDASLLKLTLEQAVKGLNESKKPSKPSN

SPM-1 beta-lactamase [2] = target: T1, SPM-1 beta-lactamase; test: NMR

Binder | binding result (SPM-1 beta-lactamase [1]) | binding result (NDM-1 beta-lactamase) | binding result (VIM-1 beta-lactamase) | binding result (IMP-1 beta-lactamase) | binding result (SPM-1 beta-lactamase [2])
GGGAGAUGCUAGAGAUUCGGUGGGACACCCGUCUCCC (XNA, 2'-fluoro at all pyrimidines (C, U)) [S25 2'-FY] | binds | no binding | no binding | no binding | 
GGGAGAUGCUAGAGAUUCGGUGGGACACCCGUCUCCC (structured_RNA) [S25 RNA] |  |  |  |  | binds
GGGAGAUGCUAGAGAUUCGGUGGGACACCCUUCUCCC (structured_RNA) [S30 RNA (S25 G31U)] |  |  |  |  | binds
